B1: E18K: hPXR protein variant, amino acid substitution of E to K at position 18 (c. 52G > A, exon 2) (protein, UniProt O75469 1-434, looked up, variant E18K)
Nuclear receptor subfamily 1 …: MEVRPKESWNHADFVHCKDTESVPGKPSVNADEEVGGPQICRVCGDKATGYHFNVMTCEGCKGFFRRAMKRNARLRCPFRKGACEITRKTRRQCQACRLRKCLESGMKKEMIMSDEAVEERRALIKRKKSERTGTQPLGVQGLTEEQRMMIRELMDAQMKTFDTTFSHFKNFRLPGVLSSGCELPESLQAPSREEAAKWSQVRKDLCSLKVSLQLRGEDGSVWNYKPPADSGGKEIFSLLPHMADMSTYMFKGIISFAKVISYFRDLPIEDQISLLKGAAFELCQLRFNTVFNAETGTWECGRLSYCLEDTAGGFQQLLLEPMLKFHYMLKKLQLHEEEYVLMQAISLFSPDRPGVLQHRVVDQLQEQFAITLKSYIECNRPQPAHRFLFLKIMAMLTELRSINAQHTQRLLRIQDIHPFATPLMQELFGITGS
B2: P27S: hPXR protein variant, amino acid substitution of P to S at position 27 (c. 79C > T, exon 2) (protein, UniProt O75469 1-434, looked up, variant P27S)
Nuclear receptor subfamily 1 …: MEVRPKESWNHADFVHCEDTESVPGKSSVNADEEVGGPQICRVCGDKATGYHFNVMTCEGCKGFFRRAMKRNARLRCPFRKGACEITRKTRRQCQACRLRKCLESGMKKEMIMSDEAVEERRALIKRKKSERTGTQPLGVQGLTEEQRMMIRELMDAQMKTFDTTFSHFKNFRLPGVLSSGCELPESLQAPSREEAAKWSQVRKDLCSLKVSLQLRGEDGSVWNYKPPADSGGKEIFSLLPHMADMSTYMFKGIISFAKVISYFRDLPIEDQISLLKGAAFELCQLRFNTVFNAETGTWECGRLSYCLEDTAGGFQQLLLEPMLKFHYMLKKLQLHEEEYVLMQAISLFSPDRPGVLQHRVVDQLQEQFAITLKSYIECNRPQPAHRFLFLKIMAMLTELRSINAQHTQRLLRIQDIHPFATPLMQELFGITGS
B3: G36R: hPXR protein variant, amino acid substitution of G to R at position 36 (c. 106G > A, exon 2) (protein, UniProt O75469 1-434, looked up, variant G36R)
Nuclear receptor subfamily 1 …: MEVRPKESWNHADFVHCEDTESVPGKPSVNADEEVRGPQICRVCGDKATGYHFNVMTCEGCKGFFRRAMKRNARLRCPFRKGACEITRKTRRQCQACRLRKCLESGMKKEMIMSDEAVEERRALIKRKKSERTGTQPLGVQGLTEEQRMMIRELMDAQMKTFDTTFSHFKNFRLPGVLSSGCELPESLQAPSREEAAKWSQVRKDLCSLKVSLQLRGEDGSVWNYKPPADSGGKEIFSLLPHMADMSTYMFKGIISFAKVISYFRDLPIEDQISLLKGAAFELCQLRFNTVFNAETGTWECGRLSYCLEDTAGGFQQLLLEPMLKFHYMLKKLQLHEEEYVLMQAISLFSPDRPGVLQHRVVDQLQEQFAITLKSYIECNRPQPAHRFLFLKIMAMLTELRSINAQHTQRLLRIQDIHPFATPLMQELFGITGS
B4: V140M: hPXR protein variant, amino acid substitution of V to M at position 140 (c. 418G > A, exon 4) (protein, UniProt O75469 1-434, looked up, variant V140M)
Nuclear receptor subfamily 1 …: MEVRPKESWNHADFVHCEDTESVPGKPSVNADEEVGGPQICRVCGDKATGYHFNVMTCEGCKGFFRRAMKRNARLRCPFRKGACEITRKTRRQCQACRLRKCLESGMKKEMIMSDEAVEERRALIKRKKSERTGTQPLGMQGLTEEQRMMIRELMDAQMKTFDTTFSHFKNFRLPGVLSSGCELPESLQAPSREEAAKWSQVRKDLCSLKVSLQLRGEDGSVWNYKPPADSGGKEIFSLLPHMADMSTYMFKGIISFAKVISYFRDLPIEDQISLLKGAAFELCQLRFNTVFNAETGTWECGRLSYCLEDTAGGFQQLLLEPMLKFHYMLKKLQLHEEEYVLMQAISLFSPDRPGVLQHRVVDQLQEQFAITLKSYIECNRPQPAHRFLFLKIMAMLTELRSINAQHTQRLLRIQDIHPFATPLMQELFGITGS
B5: D163G: hPXR protein variant, amino acid substitution of D to G at position 163 (c. 488A > G, exon 4) (protein, UniProt O75469 1-434, looked up, variant D163G)
Nuclear receptor subfamily 1 …: MEVRPKESWNHADFVHCEDTESVPGKPSVNADEEVGGPQICRVCGDKATGYHFNVMTCEGCKGFFRRAMKRNARLRCPFRKGACEITRKTRRQCQACRLRKCLESGMKKEMIMSDEAVEERRALIKRKKSERTGTQPLGVQGLTEEQRMMIRELMDAQMKTFGTTFSHFKNFRLPGVLSSGCELPESLQAPSREEAAKWSQVRKDLCSLKVSLQLRGEDGSVWNYKPPADSGGKEIFSLLPHMADMSTYMFKGIISFAKVISYFRDLPIEDQISLLKGAAFELCQLRFNTVFNAETGTWECGRLSYCLEDTAGGFQQLLLEPMLKFHYMLKKLQLHEEEYVLMQAISLFSPDRPGVLQHRVVDQLQEQFAITLKSYIECNRPQPAHRFLFLKIMAMLTELRSINAQHTQRLLRIQDIHPFATPLMQELFGITGS
B6: A370T: hPXR protein variant, amino acid substitution of A to T at position 370 (c. 1108G > A, exon 8) (protein, UniProt O75469 1-434, looked up, variant A370T)
Nuclear receptor subfamily 1 …: MEVRPKESWNHADFVHCEDTESVPGKPSVNADEEVGGPQICRVCGDKATGYHFNVMTCEGCKGFFRRAMKRNARLRCPFRKGACEITRKTRRQCQACRLRKCLESGMKKEMIMSDEAVEERRALIKRKKSERTGTQPLGVQGLTEEQRMMIRELMDAQMKTFDTTFSHFKNFRLPGVLSSGCELPESLQAPSREEAAKWSQVRKDLCSLKVSLQLRGEDGSVWNYKPPADSGGKEIFSLLPHMADMSTYMFKGIISFAKVISYFRDLPIEDQISLLKGAAFELCQLRFNTVFNAETGTWECGRLSYCLEDTAGGFQQLLLEPMLKFHYMLKKLQLHEEEYVLMQAISLFSPDRPGVLQHRVVDQLQEQFTITLKSYIECNRPQPAHRFLFLKIMAMLTELRSINAQHTQRLLRIQDIHPFATPLMQELFGITGS

System: hPXR-dependent promoter-reporter gene plasmid pGL3(DR3)3TK(−105)
Assay: hPXR-dependent promoter-reporter gene (luciferase) assay in co-transfected LS174T cells
Type: cell-based, human
Conditions: 42 hours; for hPXR-mediated transcriptional activation of the reporter gene upon treatment with rifampicin, relative to wild type hPXR: 10 μM rifampicin, FIG. 6A; for basal activity in the absence of added hPXR activators, relative to wild type hPXR: 0.1% DMSO only, FIG. 6B
Description: FIG. 6: LS174T cells were co-transfected with the promoter artificial hPXR dependent reporter gene pGL3(DR3)3Tk(−105), pCMVβ and expression plasmids for hPXR variants, as indicated. Cells were treated for 42 hours with 10 μM rifampicin or 0.1% DMSO, then harvested and analyzed for luciferase and β-galactosidase activities. Data are shown as mean value ±SD. The activity of each hPXR variant in the presence of DMSO only was taken as 1 (A, B) or 100% (C). A) The effect of hPXR variants following 10 μM rifampicin. B) The effect of hPXR variants in the absence of exogenous inducers.
The functional consequences of the protein variants were investigated in LS174T cells. LS174T cells were first co-transfected with wild-type or variant hPXR expression plasmids together with the hPXR-dependent promoter-reporter gene plasmid pGL3(DR3)3TK(−105). […] The cells were treated with the xenobiotic rifampicin, a known activator of human hPXR (Blumberg, Genes Dev (1998), 3195–3205; Lehmann, J Clin Invest (1998), 1016–1023). […] In contrast, hPXR-mediated transcriptional activation was impaired in V140M, D163G and hPXR-2 variants. […] Changes in basal activity of variants are independent from activator-dependent activity.

Molecule	hPXR-mediated transcriptional activation of the reporter gene upon treatment with rifampicin, relative to wild type hPXR	basal activity in the absence of added hPXR activators, relative to wild type hPXR
B1	as efficiently as wild type hPXR	lower basal activity than wild type hPXR
B2	as efficiently as wild type hPXR	lower basal activity than wild type hPXR
B3	as efficiently as wild type hPXR	lower basal activity than wild type hPXR
B4	50 % of wild type activity	130 % of wild type
B5	50 % of wild type activity	approximately 10 % of wild type
B6	slightly impaired transcriptional activation	207 % of wild type

From patent publication US7122652B1, “Polymorphisms in the human hPXR gene and their use diagnostic and therapeutic applications” (priority 1999, dated 2006)
